Measured values published in the nanobody polyreactivity screen of Harvey et al. (2022).

Test: yeast display, Sf9 membrane polyspecificity reagent, FACS + sequencing; frameworks hold sequencing errors
Method in brief: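 A nanobody's polyreactivity label depends on the gate it was sorted from. Yeast display cells were stained with 10% biotinylated, detergent-solubilized Sf9 membrane reagent for 1 hour at 4 °C, enriched on streptavidin microbeads and sorted by FACS. The low and high (top ~1%) gates were set on anti-HA fluorescence for expression and streptavidin fluorescence for reagent binding.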

| Sequence | polyreactivity (PSR sort gate) |
| --- | --- |
| QVQLVESGGGLVQAGGSLRISCAASGSILTHYAMGWYRQAPGKERELVADINSGGGTSYADSVKGRFTISRDNAKNTVYLQMNSLKPEDTAVYYCAAAWWPYRYPTYYSQFDYWGQGTQVTVSS | low polyreactivity |
| QVQLVESGGGLVQAGGSLRISCAASGSISVRNVMGWYRHAPGKERELVATIRRTGGSTSYADSVKGRFTISRDNAKNTVYLQMNSLKPEDPAVYYCAAVGYTTYRRYDYWGQGTQVTVSS | low polyreactivity |
| QVQLVESGGGLVQAGGSLRISCAASGSNFAYYAMGWYRQAPGKERELVAAITRGGRTYYADSVKGRFTISRDNAKNTVYLQMNSLKPEDTAVYYCNARNYTWYSSRFMRFDYWGLGTQVTVSS | high polyreactivity |
| QVQLVESGGGLVQAGGSLRISCAASGSSYGTYAMGWYRKAPGKERELVAAINFSGTSTYYADSVKGRFTISRDKAKHTVYLQMNRLKPEETADYYCAARFYWKYGRYDNWGQGTQVTVSS | high polyreactivity |
| QVQLVESGGGLVQAGGSLRISCAASGSTFDPNVMGWYRQAPGKERELVAVITTTGVSTYYADSVKGRFTISRDNAKNTVYLQMNSLKPEETAVYYCNAKWYWYLTRDDFRYRYTYDYWGQGTQVTVSS | low polyreactivity |
| QVQLVESGGGLVQAGGSLRISCAASGSTFDRNAMGWYRQPPGKERELVAAISSSGGRTYYADSVKGRFTISRDNAKNTVYLQMNSLKPEDTPVYYCAAAFSLGMYWGKGTQVTVSS | high polyreactivity |
| QVQLVESGGGLVQAGGSLRISCAASGSTFKGYAMGWYRQSPGKERELVAAISRSGTRTYYADSVKVRFTISRDTAKNTVYLQMNSLNPEDTAVYSCNKDTGYIAHDNENGRDYWGQGTQVTVSS | low polyreactivity |
| QVQLVESGGGLVQAGGSLRISCAASGSTFKRNVMGWYRQAPGKERELVAAISRTDGRTYYADSVKGRFTISRDNAKNSVYLEMNSLKPEDTAVYYCAATTGHRTYRYYYWGHGTQVTVSS | high polyreactivity |
| QVQLVESGGGLVQAGGSLRISCAASGSTFRGYAMGGYRQAPGKERDLVAAMSSNGDRTFYADSVKGRFTISRDNAMNTVYLLMNSLKAEDTAVYYCNAVYSGSWQLYGYWGQGSQVTVSS | high polyreactivity |
| QVQLVESGGGLVQAGGSLRISCAASGSTFRRYAMGWYRQAPGKEREFVAVITSSGVITYYADSVKGRFTISRDNAKNTVYLQMNSLKPEDTAVYYCATDARSMDYWGQGTQVTVSS | low polyreactivity |
| QVQLVESGGGLVQAGGSLRISCAASGSTFSYYAMGWYRQAPGKERELVAAISSRGGSTYYADSVKGRFTISRDNAKNTVYLQMNSLKPEDTAVYYCAAVRNRHGYDYWGQGTQVTVSS | high polyreactivity |
| QVQLVESGGGLVQAGGSLRISCAASGSTFYHNVMGWYRPAPGKERELVASIDTGDSTNYADSVKGRFTISLDNAKNTVYLQMNSLKPEDTAVYYCNADSYPALNKRGYDYWGQGTQVTVSA | low polyreactivity |
| QVQLVESGGGLVQAGGSLRISCAASGSTIQQYAMGRYRQAPGKEREFVAAISWRGGRTYYADSVKGRFTISRDNAKNTVYLQMNSLKPEDTAVYYCAVDPSIYRLSAYYYDYWGQGTQVTVSS | low polyreactivity |
| QVQLVESGGGLVQAGGSLRISCAASGYTFPFYTMGWYRQAPGKERELVAAINSGGSTYYADSVKGRFTISRDNAKNTVYLQMNRLKPEDTAVYYCAVEGGFRVRYQAQYRFYYWGQGTEVTVSS | high polyreactivity |
| QVQLVESGGGLVQAGGSLRISCAASVSIFPGYAMGWSRQAPGKERELVATITWSGGSTYYADSVKGRFTISRDNAKNTVYLQMNSLKPEDTAVYYCNADSNWYYQWNYYCLYDYWGQGTQVTVSS | low polyreactivity |
| QVQLVESGGGLVQAGGSLRISCAAYGSTIVTNAMGWYRQAPVKERELVAASTSGAGTYYADSVKGRFTISRDNAKNTVYLQMNCLKTEDTAVYYCAARRYYSSGRYRFGYWGQGSQVTVSS | high polyreactivity |
| QVQLVESGGGLVQAGGSLRISCADSGSIFSLYAMGWYRPAAGKERELVAAIRRGGSTYYADSVKGRFTISRDNAKNTVYLQMNSLIPEDTAVYYCAADAYSGYSDYYWGQGTHVTVSS | low polyreactivity |
